The Kd is the free concentration of one partner at which half of the binding sites on the other are occupied at equilibrium, for simple one-to-one binding.

Series [1] has as its target T1, XtrLin28b ZKD (Xenopus tropicalis, UniProt B4F6I0 125-175).
T1 sequence: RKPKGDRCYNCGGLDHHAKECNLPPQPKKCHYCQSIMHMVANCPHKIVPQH
The series is described as follows: ITC.

For series [2], the target named is T2, XtrLin28b ZKD Y133A (Xenopus tropicalis, UniProt B4F6I0 125-175, Y133A).
T2 sequence: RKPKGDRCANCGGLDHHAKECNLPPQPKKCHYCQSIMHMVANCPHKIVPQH
Nature of the series: ITC.

In series [3] the target is T3, XtrLin28b ZKD H155A (Xenopus tropicalis, UniProt B4F6I0 125-175, H155A).
T3 sequence: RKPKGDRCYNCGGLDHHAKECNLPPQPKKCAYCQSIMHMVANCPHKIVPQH
The series is described as follows: ITC. For orientation: Isothermal titration calorimetry measures the heat released or taken up as one component is titrated into another.

Series [4] addresses T4, XtrLin28b CSD (Xenopus tropicalis, UniProt B4F6I0 27-114).
T4 sequence: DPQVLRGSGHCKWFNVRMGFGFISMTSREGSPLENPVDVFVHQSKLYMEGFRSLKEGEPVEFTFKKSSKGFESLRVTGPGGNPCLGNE
Nature of the series: crystal structure.

B1: rZ1 (ssRNA)
RNA: AAGGAGAA
On to B1, for which the Kd in series [1] was 0.045 ± 0.004 µM; in series [2], 2.2 ± 0.7 µM; in series [3] it was 2.6 ± 0.6 µM.

B2: rU6 (ssRNA)
RNA: UUUUUU
Take B2: the binding result in series [4] is recorded as “binds”.

The values are drawn from paper PMC3424542.
